Assay results taken from the DeepSol protein solubility set.

assay: soluble on expression in E. coli; label from the status in PepcDB or PDB records

Row | Sequence | soluble on expression in E. coli
1 | MGSDKIHHHHHHMCMTSPDQLTASESADTASAHKRVLVAAPRGYCAGVDRAVETVEKALEKYGAPVYVRKEIVHNRYVVDTLAERGAIFVDETTEAPEGAHLVFSAHGVSPAVHKEAEALSLKTLDATCPLVTKVHNEVKRFARDGYHILLVGHEGHEEVEGTAGEAPDVTHLVDGVESVDKLPEFLHDEKLIWLSQTTLSVDETMTIVKKLHERFAHLQDPPSDDICYATQNRQVAVKAIAAESDVVIVVGSQNSSNSKRLVEVALQAGAGASYLVDYAHQIDESWLDGATTVGVSSGASVPEILVRGVLEFLDARGFHDVKEITTAAEKITFALPRDLRPART | not soluble
2 | MKWTGEDVALYERERDYIDTALLPLLPVAFGQGAKRLASGGELVGLIAAEVERQLKGRLFLMPSFVYFADEPRALLTERLADWTNRLRREGMKHLFYVTCDRAWQEGEEADRVWFVPVVPLESMGESYKHELVREQAAELLRFLIGRWAQE | not soluble
3 | FSSALTSKDAARLADETDNIAEALRAAETEGVALQDMLQAYLPANGMVRVVNGDQKAVMTITKEKAYKDFPLSFHSGETADVRKPDGKLFAEAAVPVIWTDGQVVSLQLVERLENTEESLFLLK | not soluble
4 | MRDRVRWRVLSLPPLAQWREVMAALEVGPEAALAYWHRGFRRKEDLDPPLALLPLKGLREAAALLEEALRQGKRIRVHGDYDADGLTGTAILVRGLAALGADVHPFIPHRLEEGYGVLMERVPEHLEASDLFLTVDCGITNHAELRELLENGVEVIVTDHHTPGKTPPPGLVVHPALTPDLKEKPTGAGVAFLLLWALHERLGLPPPLEYADLAAVGTIADVAPLWGWNRALVKEGLARIPASSWVGLRLLAEAVGYTGKAVEVAFRIAPRINAASRLGEAEKALRLLLTDDAAEAQALVGELHRLNARRQTLEEAMLRKLLPQADPEAKAIVLLDPEGHPGVMGIVASRILEATLRPVFLVAQGKGTVRSLAPISAVEALRSAEDLLLRYGGHKEAAGFAMDEALFPAFKARVEAYAARFPDPVREVALLDLLPEPGLLPQVFRELALLEPYGEGNPEPLFLLFGAPEEARRLGEGRHLAFRLKGVRVLAWKQGDLALPPEVEVAGLLSENAWNGHLAYEVQAVDLRKPEALEGGIAPFAYPLPLLEALARARLGEGVYVPEDNPEGLDYAWKAGFRLLPPEEAGLWLGLPPRPVLGRRVEVALGREARARLSAPPVLHTPEARLKALVHRRLLFAYERRHPGLFSEALLAYWEVNRVQEPAGSP | soluble
5 | MFSKTVVVLLMVVPAISLAQPASPLVLKKSHGAFCHLCEDLIKDGKEAGDVALDVWLDEEIGSRCKDFGVLASECFKELKVAEHDIWEAIDQEIPEDKTCKEAKLC | not soluble
6 | MGSDKIHHHHHHMLTKSSTELVRQQNSALVLAALRRKGSLSHTEIAAQTGLASATISVITAELERSGIIAKTEQHVQGGRGRPRVLFEPRRGCGYVIVVRISSDVVQYSLADYGGILLDRFEDARSHDLRGTAAFGEVLAAALERLLVRSNISKDEVLAISISSKGLVAGGGARLIWSPVFGREQLDFVELLRPAWRARIMLSNESLLVAHALAVREEERERGFHALAAVSLGHSIGLGLARRGKSGELDVSAPDFGHMLHQASAGLCRCGSYGCIEAAAGFYGILRTAFEVPSDTIPAKFVPLSEVDKIAASARQGNRMGGYAFRQAGLALGNGISRMLSLYEPMPIFVTGPGTRYFDLLEKGLEEGLAHSLQVRLQGMPQIRVVPDEQRLVFDGHLNRALGAIDGDIAAAGHP | not soluble
7 | MQNKIQVKSVEKRENALIFCAENSEIEVKELSARNHVLVDSDNLSFLYILENESSFIYVSIPHTCWEAMHEAMNNDVVMFVRVNDIEMELEGLKEEVEYLVENIEGNANYGEELVTAVEKVFL | not soluble
8 | SSVASALLLQEAQAGFCRVDGTIDNNHTGFTGSGFANTNNAQGAAVVWAIDATSSGRRTLTIRYANGGTANRNGSLVINGGSNGNYTVSLPTTGAWTTWQTATIDVDLVQGNNIVQLSATTAEGLPNIDSLSVVGGTVRAGNCG | soluble
9 | MTQKEISIIHPRPSSIVAALYTLRDLNVDVAILHGPPGCSFKHARLLEEDGIHVVTTGLDENGFVFGGHDRLVEVINKSIELFNPKILGVVGTCASMIIGEEMHDAVLEANPDIPVIEVEVHAGYHNNTRGVLFALESALDAGIIDRKEFERQEYLEHHHHHH | soluble
10 | MSLIKDIRTYKLCYEGINDERDALAIKGLAEHPMEIVATEIETSDGYVGYGESLAYGCSDAVQVTIEKILKPLLLKEDEELIEYLWDKMYKATLRFGRRGIAIAGISGVDTALWDIMGKKAKKPIYKLLGGSKRKVRAYITGGYYSEKKDLEKLRDEEAYYVKMGFKGIKVKIGAKSMEEDIERLKAIREVVGEDVKIAVDANNVYTFEEALEMGRRLEKLGIWFFEEPIQTDYLDLSARLAEELEVPIAGYETAYTRWEFYEIMRKRAVDIVQTDVMWTGGISEMMKIGNMAKVMGYPLIPHYSAGGISLIGNLHVAAALNSPWIEMHLRKNDLRDKIFKESIEIDNGHLVVPDRPGLGYTIRDGVFEEYKCKSEGHHHHHH | soluble
11 | MLSVENLKVVYRGVILALDGVSLEVGEGEAVALLGPNGAGKSSLVRTIAGLLPKFEGRVLDGKVRLFGREATHLDPVGISRLGLTAILEGRPLFRYLTPVENLMAAGHRLPPKALKEGMEEVFARFPRLYERRHEQAGYLSGGEQQMLLLGMALLTRPRLLVVDEPSLGLAPKLVGEVMQTLDALRREKGLSLLLVEQNARAALGVVDRVYVLERGRVVFEGSAKEAMEDQDVMEFYLGKEEVGFRQARRYRRRKRWV | soluble
12 | MEGFPVRVRVDVRFRDLDPLGHVNNAVFLSYMELARIRYFQRISPDWLEEGHFVVARMEVDYLRPILLGDEVFVGVRTVGLGRSSLRMEHLVTANGESAAKGLGVLVWLEGGRPAPLPEAIRERIRALEGRPL | soluble
13 | MTIKTGNIRTNSLAEIYRNSPVFQNLRNPDKYKGKCGVCEFRYVCGGSRSRAYAMTGGLYGKMAGDPLEHHHHHH | not soluble
14 | QVQLQESGGGLVQAGDSLKLSCEASGDSIGTYVIGWFRQAPGKERIYLATIGRNLVGPSDFYTRYADSVKGRFAVSRDNAKNTVNLQMNSLKPEDTAVYYCAAKTTTWGGNDPNNWNYWGQGTQVTVSS | soluble
15 | MIICKTPREIEIMREAGRIVALTHQELKQHITPGITTKELDQIAEKTIQKYGATPSFKGYNGFPGSICASVNEELVHGIPGKRKLKEGDIISIDIGAKYNGYHGDSAWTYPVGNISESVQKLLDVTEKSLYLGLEQVKPGERLSNISHAVQTHAEENGFSIVREYVGHGIGQDLHEDPQIPHYGPPNRGPRLKPGMVICVEPMVNQGRRYVKTLSDDWTVVTVDGKWCAHFEHTIALTEAGYEILTTL | soluble
16 | MFLTKVSLLDHPESLPGYLSSLAIVEYLHEQPLEFRAPITVITGENGVGKSTLVEALAVGMRLNPSGGSRHANFGREGDIVSSLHQSLKLVRRENPRDAFFFRGETMYNVASYYEELMGEKNMHDLHKMSHGESVFAVIDRRFNNQGFFVLDEPEAGLSMLRQLELLGKLGNLARGGAQIIMATHSPILLAIPGAEILEITSSGVAKVNFEDAEAVRAAREFVADPRGTAAFLTAEEDHQ | soluble
17 | MNFPISTIRIGGWVVVAKNPDDIVAKFYFAKKKLIWEFLFGEPETNTLRLKRKIEIQWNDVSSFEESISSRDETGILKIELKKRPTFFIETNPQAGKHTQWKQLDHDFTGDHASNYRRHTLHFPPGVLQKNLEKLVTDSFWSKLYEVPFPVHESRYFDSGFENNSSRNSHSHTVGFNVNNGPQHHFSQGIGGVGVGEGNFSMANGGWQRNSYSPVNSLNYNTANEFFGMQATPPSSQVVNEHYNTQNDFTGSQFGYHMNQDEIQKILESQAYAVPDTQTKLMSSAMNNVPKYPQAGSCLESMLFWYEHRRRFQQ | soluble
18 | MGSDKIHHHHHHMKRLITTGAAFLLAATLSACNGNNTSETQGDRTEQAETVQADLFSADSAYTFVQRQVNFGPRIPGTAPHRACGDWLVATLRSFGAAVQEQTAEIKAHDGTMLPMRNIIASYRPEATGRMLLMAHWDTRPVCDQDANPAMHTETFDGADDGGSGVGVLLEIARYLGQQKDLGMGIDIVFFDTEDYGSYGDDESWCLGSQYWSRNPHVAGYKAEAGILLDMVGAKGATFYWEYFSKSYAPGLISAVWQTAAALGYGNYFIQADGGALTDDHVPVIKNLGIPCIDIINYSSKNEHGFGDHWHTQRDNMQIIDKNVLDAVGETVIRYLDEQVKAASH | not soluble
19 | MSNEEIKNKDEQLQQDAVETEAEVVGTDADIDWNQAADEIDEKEAKIAQLEAALLVSEERVKEQQDSVLRARAEVENMRRRSEQEVDKARKFALSRFAEELLPVIDNLERAIQAADGEVEAIKPLLEGVELTHKTFVDTIAKFGLKEINPHGEVFNPEFHQAMSIQESAEHEPNTVMFVMQKGYELNGRVLRPAMVMVSK | not soluble
20 | MKTNSEELTVFVQVVESGSFSRAAEQLEMANSAVSRIVKRLEEKLGVNLLNRTTRQLNLTEEGAQYFRRAQRILQEMAAAETEMLAVHEVPQGVLRVDSAMPMVLHLLAPLAAKFNERYPHIRLSLVSSEGYINLIERKVDIALRAGELDDSGLRARHLFDSHFRVVASPEYLAKHGTPQSAEDLANHQCLGFTEPGSLNTWAVLDAQGNPYKISPHFTASSGEILRSLCLSSCGIACLSDFLVDNDITEGKLIPLFAEQTSNKTHPFNAVYYSDKAVNLRLRVFLDFLVKELGKNMNRTNTK | not soluble
21 | MGSDKIHHHHHHMLHPIILAGGVTQTSEWSTGVCHLALETAPGVPSRFEGVLDAMSGDVFADPVVVTTRDNMSLVERQIAARPAALIVEPETHKPAAALLSAVLSLRHMPGALVVVAPATANLADTRNLDKALCNAIPAAQRGEIVMFGQRTTRAYGGFGIMEVVTQPHENAPVAVSRVLASGRKVTLSHLLHGNHQLWGTGLYLARVDVLLAAFKSHASRLFLPVKNALLRAGTVDRTTLLDRATYRRVKAITFEKAVAEKIENICAIQLDPTWSALEEWDQDAAADSAVAQWDEDLAQERAGVLNARAAAPFPHSADMMAVYASLSKISAEDALSAHATEYDWGRLESLAMGPGFTLQRMSIAPGATLDLNAAPGGAEHWIVAQGSVLITIGDHVRLVWEGHSARIPAGRSRRIENPGSGTLVLVQLQVMPLSATGQPQSAASFSPAGVA | not soluble
22 | MGSDKIHHHHHHMKLLHIERHTTCLNYVSDYNICFIHQRLFSGGDFKIDNHHHSCILFLLKGEILTSCSEFHDQHIVEGHMVLFPQNDPNQSKSMTETEFILLFFDNQVNLHNKMSIELSAIHLESEKSCFYSLSICPPLRHVLDSICFYLKQKVQCSHMHELKQKEIFMVFGTFYNRTDMAHFLMPITGRDPNFKSFVLENYLQIRNIKQFAQLYHCSERSFNRKFKSCFHDTPYNWILNQKTRHIKGQLANRNIPISEIARTFHFASPSHFTTYCKKRLGITPSEFREKIAK | not soluble
23 | MGNSYITKEDNQISATSEQTEDSACLSAMVLTTNLVYPAVLNAAIDLNLFEIIAKATPPGAFMSPSEIASKLPASTQHSDLPNRLDRMLRLLASYSVLTSTTRTIEDGGAERVYGLSMVGKYLVPDESRGYLASFTTFLCYPALLQVWMNFKEAVVDEDIDLFKNVHGVTKYEFMGKDKKMNQIFNKSMVDVCATEMKRMLEIYTGFEGISTLVDVGGGSGRNLELIISKYPLIKGINFDLPQVIENAPPLSGIEHVGGDMFASVPQGDAMILKAVCHNWSDEKCIEFLSNCHKALSPNGKVIIVEFILPEEPNTSEESKLVSTLDNLMFITVGGRERTEKQYEKLSKLSGFSKFQVACRAFNSLGVMEFYK | soluble
24 | MLEEELARKIERYFSIEEEALKKIRISPAEGSFLRKIAEDNMQMILSYYSDAKHFYAKGDLINAFAALNYSYGWIDAGVRLGIFDGAGDHRLFTLYE | not soluble
